Experimental data from the nanobody polyreactivity screen of Harvey et al. (2022).

Test: yeast display, Sf9 membrane polyspecificity reagent, FACS + sequencing; frameworks hold sequencing errors
Method in brief: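 Genes from sorted yeast were amplified by colony PCR, read by MiSeq 2 × 250 sequencing and filtered on CDR length. These cells carried a synthetic nanobody library in Saccharomyces cerevisiae BJ5465 and were sorted by FACS into low and high (top ~1%) gates on anti-HA and streptavidin fluorescence. Polyreactivity is labelled according to the gate of origin.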

Sequence	polyreactivity (PSR sort gate)
QGQLVESGGGLVQAGGSLRLSCAASGRIFTYYAMGWYRQAPGKERELVAAISWSGGSTYYADSVKGRFTISRDNAKNTVYLQMNSLKPEDTAVYYCAAVGYAGLPYGLRPNNSGYWGQGTQVTVSS	low polyreactivity
QVQLVESGGGLVQAGGSLRLSCAASGSIFAGYAMGWYRQAPGKERELVAAISWSGGRTYYADSVKGRFTISRDNAKNTVYLQMNSLKPEDTAVYYCAALYIYRTYAALSRYDYWGQGTQVTVSS	high polyreactivity
QVQLVESGGGLVQAGGSLRISCAASGRICAYNAMGWYRQAPGKERELVAAITWSGGTTYYADSVKGRCTISRDNAKNSVYFQRNSLKPEVTAVYYCAATVGAASRYYYWAQGTQVTVSS	high polyreactivity
QVQLVESGGGLVQAGGSLRLSCAASGSTFKYYSIGWYRQAPGKERELVASITGRTVGTYYADSVKGRFTISRDIAKNTVYLQMNSLKPEDTAVFYCATDLYWDYPDKGYTVSWWYGYWGQGTQVTVSS	low polyreactivity
QVQLVESGGGLVQAGGSLRLSCAASGSTFVQYTMGWYRQAPGKERELVAVITGGDGSTYYADSVKGRFTISRDNAKNTVYLLMNSLKPEDTAVYYCNADVYDYLRGGYEFDYWGQGTQVTVSS	low polyreactivity
QVQLVESGGGLVQAGGSLRLSCAASGSIFNLYALGWYRKAPGKERELVAAIRWDGGSTYYADSVKGRFTISRDNAKNTVYLQMNSLKPEDTAVYYCAAETVYFRLLILDYWGQGTQVTVSS	high polyreactivity
QVQLVESGGGLVQAGGSLRLSCAASGYIFYDNAMGWYRQAPGKDREFVSTYYADSVKGRFTISRDNAKNTVYLQMNSLKPEDTAVYYCAAVYSHEGYCWGQGTQVTVSS	low polyreactivity
QVQLVESGGGLVQAGGSLRLSCAASGFIFAYYVMGWYRQAPGKERELVAAISRGGGSTYYADSVKGRFTISRDNAKNTVYLQMNSLKPEDTAVYYCATYSHALRYDYWGQGTQVTVSS	high polyreactivity
QVQLVESGGGLVQAGGSLRLSCAASGFTFDYNAMGWYRQAPGKEREFDAAISTGGSTKYADSVKGRFTISRDNAKNTVYLQMNSLKPEDTAVYYCNKQTTDRGFYDWKWSGFDYWGQGTQVTVSS	low polyreactivity
QVQRVESGGGLVQAGGSLRLSCAASGFTFVPYALGWYRPAPGQERELVAAISGSGGSTYYADSVKGRFTISRDNEKNTVYLQMNSLKPEDTAVYYCNADRRWAYYWGQGTQVTVSS	high polyreactivity
QVQHVESGGGLVQAGGSLRLSCAASGRTYRYNAMGWYRQAPGKETELVAAITGGGSTNYADSVKGRFTISRDNAKYTVYLQMNSLKPEDTAVYYCATGGFKYWWLYPYDYWGQGTQVTVSS	low polyreactivity
QVQLVESGGGLVQAGGSLRLSCAASGSTFPFYAMGWYRQAPGKERELVAAIRYTGNTYYADSVKGRFTISRDNAKNTVFLLMISLKPEDTAVYYCAADADYWAYGYWGHGTQVTVSS	low polyreactivity
QVQHVESAGGLVQAGGSLRLSCAASGRIFYVNAMGWYRPAPGKERQLVAAIRSAVGTYYADSVKGRFTISRDNAKNTVYLQMNSLKPEDTAVYYCNADASFREYRFYLIEMDYWGQGTKVTVSS	high polyreactivity
QVQLVESGGGLVQAGGSLRLSCAASGSTFVLNAMGWYRQAPGKERELVAAINLDSGNTNYADSVKGRFTISRDNAKNTVYLQMNSLKPEDTAVYYCNTDVKFGGTAYDYWGQGTQVTVSS	low polyreactivity
QVQLVESGGGLVQAGGSLRLSCAASGRIFFRYAMGWYIQAPGKEREFVAAISGSAGSTYYADSVKGRFKISRDNAKNTVYLQMNSLKPEDTAVYYCAARKAKVSNGLKYDYWGQGTQVTVSS	low polyreactivity
QVQLVESGGGLVQAGGSLRLSCADSGSTFRFNAMGWYRQAPGKERDLVAAISQSGGSTRYADSVKGRFTISRDNAKNTVYLQMNSLKPEDTAVYYCAARRRWLPGYAWQVAYDSWGQGTQVTVSS	high polyreactivity
QVHLVESGGGLVHAGGSLRLSCAASGSTFPGYGMGWYRQAPGQERELVATNRNGGITNYADSVKGRFTISRDNAKNTVYLQMNSLKAEDTAVYYCAADVVQYLYYFRLDYWGQGTQVTVSS	low polyreactivity
QVQLVESGGGLVQAGGSLRLSCAASGLTFYSYAMGWYRQAPGKERELVAAITWSGGGTYYADSVKGRFTISRDNAKNTVYLQMNSLKPVDTADYYCAADYWGYDIYYGLTERESWGQGTQVTVSS	high polyreactivity
QVQLVESGGGLVQALGSLRLSCVASGSTYDAYDMGWYREAPGKERELVAAITSGGSTYYADSVKGRFTISRDNAKNTVYLQMNSLKPEDTAVYYCAASNQWSSTYLTYGFYYWGQGTQVTVSS	low polyreactivity
QVQLVESGGGLVQAGVSLRLSCAASGLTFNYYDMGWYRQAPGKERELVAAISRSGTNTSYADSEKGRFTISRDNAKNTVYLQMNSLKPEDTAVYYCNADYYSRIVGVRIYDYWGQGTQVTVSS	low polyreactivity
QVQLVESGGGLVQAGGSLRLSCAASGYTFAPYVMGWYRQAPGKERELVARISNNGGSKYYADSVKGRFTISRDNAKNTFYLQMNSLKPEDTAVYYCAADVGLIYFRYYYCGQGTQVTVSS	low polyreactivity
QVQLVESGGGLVQAGGSLRLSCAASGITFYEYAMGWYRQAPGKERELVATITSGGNTNYADSVKGRFTISRDNAKNTVYLQMNSLKPEDTAVYFCATRPYGYSCNRPYDYWGQGTQVTVSS	low polyreactivity

Sequence	polyreactivity (PSR sort gate)
QVQLVETGGGLVQAGGSLRLSCAASGSTFAKYVMGWYRPAPGKERELVAAISRRGSSTYYADSEKGRFTISRDYAKNTVYLQMNSLKPEDTAVYYCAARFRYSGFEGMDYWGQGNQVTVSS	high polyreactivity
QVQLVESGGGLVQAGGSLRLSCAASGRTFSGYTMGWYRQAPGKERELVAGISRSGGRTYYADSVKGRFTISRDNAKKTVYLQMNSLKPEDTAVYYCATPYRRLNTWIYDYWGQGTQVTVSS	high polyreactivity
QVQLVESGGGLVQAGGSLRLSCAASGFIFRGYAMGWYRQAPGKERELVAAISRRGGSTYYADSVKGRFTISRHNAKNTVYLLMNSLKPEDTAVYYCNADTTQQGNVRVGYWGQGTQVTVSS	high polyreactivity
QVQLVESGGGLVQAGGSLRLSCAASGSTFEVYVMGWYRQAPGKERELVAGISKRGGRTYYADSVKGRFTISRDTEKNTVYLQLNSLKPEDTAVYYCAADAPGHEYYYWGQGTQVTVSS	high polyreactivity
QVQLVESGGGLVQAGGSLRLSCAASGFNYYTMGWYRQAPGKERELVAAINYSGGRTYYADSVKGRFTISRDNAKNTVYLQMNSLKPEDTAVYYCNTARSPYDHRPERSYDYWGLGTQVTVSS	high polyreactivity
QVQLVESGGGLVQAGGSLRLSCAASGITFYPNGMGWYRQAPGKEREFVAAITSSGGSTYYADSVKGRFRISRDNAKNTLYLQMNSLKPEDTAVYYCAAQYYPISYYGYGYWGQGTQVTVSS	low polyreactivity
QVQLVESGGGLVQAGGSLRLSCAASGFTFWQYAMGWNRQAPGKERELVAAITWDVGSTYYSDSVKGRFTISRDNAKNTVYLQLNSLKPEDTAVYYCAKLIGGTYYEDDYWGQGSQVTVSS	low polyreactivity
QVQLQESGGGLVQAGGSLRLSCAASGNISVTGFMGWYRQAPVKERELVASIGIGGTTYYADSVKGRFSISRDNAKNTVYLQMNSLKPEDTAVYYCAARYLYYAYSYWGQGSQVTVSS	low polyreactivity
QVQLVESGGGLVQAGGSLRLSCAASGGIFPYYAMGWYRQAPGKERELVADISSGGSTYYADSVKGRFTISRDNAKNSVYLQMNSLKPDDTAVYYCAADAGQYFTYSGDDNHDYWGQGTQVTVSS	low polyreactivity
QVQLVESGGGLVQAGGSLRLSSAAYGSIFTYNAMGWYRQAPGKERELVDTISWRGGSTYYADSVKGRFTISRDNAKNTVYLQMNSLKPEDTAVYYCDKSWRGRYDYWGQGTQVTVSS	high polyreactivity
QVQLVESGGGLVQAGGSLRLSCAASGSILEPYAMGWYRQAPGKERELVAAISSSGGSTRYADSVKWRFTISRDNAKNTVYLQMNSLKPEDTAVYYCAARFRAKFNYWGQGTQVTVSS	high polyreactivity
QVQLVESGGGLVQAGSSLRLSCAASGSTYAFYALGWYRQAPGKAMELVDAITSGGTTNYADSVKGRFTISRDNAKNTVYFQMISLKPEDTAVYYCNAYYLGWYRVRAVTGYDYWGQGTQVTLSS	low polyreactivity
QVQLVESGGGLVQAGGSLRLSCAACGSTFSVHAMGWYRQAPGKERELVAAISWGGTSTYYADSVKGRFTISRDNAKNTVYLQMNSLKPEDTAVYYCAAVSRGKVNTVYYWGQGTQVTVSS	high polyreactivity
QVQLEESGGGLVQAGGSLRLSCAASGSTFSTYSMAWYRHAPGKERELVARITRSDTGTYYADSVKGRFTISRDYAKNTVYLQLNSLKPEDTAVYDCAADGWYDDSGWDYGYDYWGQGTQVTVSS	low polyreactivity
QVQLVESGGGLVQAGGSLRLSCAASGFIFTLYAMGWYRQAPGKESELVASISSGGSTNYADSVKGRFTISRDNAKNTVYFQMNSLKPEDTAVYYCAAYYYFKSDRFSGRYGRYYWGQGTQVTVSS	high polyreactivity
QVQLVESGGGLVQAGGSLRLSCAASGRTFYGYAMGWYRQAPGKERELVASISRDGSTNDADSVKGRFTISRDNAKNTVYLQMNRLKPEDTEVYYCAADIWYYRYPIYYYSYDYWGQGTQVTVSS	low polyreactivity
QVQLVESGGGLVQAGGSLRLSCAASGSIFVPYTMGWYRQAPGKERELVASISYSGGTTYYADSVKGRFTISRDNAKNTVYLQMNSLKPEDTAVYYCAAQTLDGYDYWGQGTQVTVSS	low polyreactivity
QVQLVESGGGLVQAGGSLRLSCAASGFIFYHYAIGWYRQEPGKERELVAAISGRGGSTYYADSVKGRFTISRDNAKNSVYLQMNSLKPEDTAVYYCSTDYSRTFDYWGQGTQVTVSS	high polyreactivity
QVQLVESGGGLVQAGGSLRLSCAASGSIFRIYAMGGYRQAPGKERELVAAITGRGGSTYYADSVKGRFTISRDNAKNTVYLQRNSLKPEDTAVYYCAAEERYAYRYDYWGQATQVTVSS	high polyreactivity
QVQLVESGGGLVQAGGSLRLSCAASRSIFLYYAMGWYRQAPGKERELVAAISYSGSGTYADSVKGRFTISRDNAKNTVYLQMNSLKPEDTAVYYCNVDYGSYSYDYWGQGTQVTVSS	low polyreactivity
QVQLVESGGGLVQAGGSLRLSCAASGRIFRRNAMGWYRPAPGKERELVAGITWSGGTTYYADSVKGRFTISRDNAKNTVYLQMNSLKPEDTAVYYCNAGRSKWLSRYDYWGQGTQVTVSS	high polyreactivity
